B1: HDV Ribozyme (parent)
chain: GGCCGGCAUGGUCCCAGCCUCCUCGCUGGCGCCGGCUGGGCAACAUUCCGAGGGGACCGUCCCCUCGGUAAUGGCGAAUGGGACCCA

Variants of B1 are the subject of the data set. Kind of data set: self-cleavage, relative activity (ratio to wild type); higher = more cleavage; co-transcriptional.
C36U C62G: the self-cleavage was 0.222.
In the case of C36U C62U, the self-cleavage was 0.911.
U37C A70G: the self-cleavage was found to be 1.23.
For U37A U46A the value was 0.185.
As for U37A U46G, the self-cleavage stood at 0.128.
Turning to U37A U46C, the self-cleavage came to 0.0852.
For the variant U37C C64U, the self-cleavage stood at 1.19.
Regarding U37C C64G, the self-cleavage came to 0.604.
Then C36G U60A, with 0.0405.
For C36G U60C the value was 0.237.
As for U37G C86A, the self-cleavage worked out at 0.185.
Then U37A C84A, with 0.128; and U37C G52U, with 0.997.
For U37C G52A, the self-cleavage was 1.25.
In the case of C36U A42U, the self-cleavage stood at 0.208.
Take U37G G55C: the self-cleavage came to 0.141.
Turning to U37G G55U, the self-cleavage was determined as 0.214.
Turning to U37G G55A, the self-cleavage was 0.0831.
For C36U U60G, the self-cleavage was determined as 0.508.
With C36U U60A, the self-cleavage was 0.727.
For the variant C36U U60C, the self-cleavage worked out at 0.959.
For C36U U47G, the self-cleavage was determined as 0.665.
Then C36U U47C, with 0.467; and U37C U79G, with 0.465.
For the variant U37C U79A, the self-cleavage is 0.554.
On to C36U C57A, for which the self-cleavage amounted to 0.816.
On to U37C A43C, for which the self-cleavage was 0.308.
As for U37C G53U, the self-cleavage is 1.13.
Regarding C36U G67C, the self-cleavage came out at 0.831.
C36G U46A: the self-cleavage is 0.415.
For U37C C58U the value was 0.997; for U37C C58A, 1.22; for U37C C58G, 0.872.
For C36U A78U, the self-cleavage was found to be 0.154.
Turning to C36U A78C, the self-cleavage was found to be 0.173.
As to C36U A70G, the self-cleavage came out at 0.969.
For C36U A70C, the self-cleavage was 0.849.
For the variant U37C G54A, the self-cleavage came out at 1.11.
Take U37C G54C: the self-cleavage was 1.13.
For the variant U37C G54U, the self-cleavage was found to be 1.02.
Take U37C C75G: the self-cleavage turned out to be 0.0627.
On to U37C C75A, for which the self-cleavage amounted to 0.177.
Regarding U37C C75U, the self-cleavage turned out to be 0.0997.
For the variant U37C U46C, the self-cleavage was found to be 0.914.
Regarding U37C U46G, the self-cleavage was determined as 0.787.
For U37A C58A the value was 0.225.
Regarding U37A C58U, the self-cleavage came out at 0.405.
For U37A G53U the value was 0.302.
As to U37A G53A, the self-cleavage is 0.0594.
On to U37A G52U, for which the self-cleavage was determined as 0.214.
Take U37A G52A: the self-cleavage came out at 0.145.
Then C36G G52U, with 0.14.
With U37C C62A, the self-cleavage amounted to 1.05.
Regarding U37A G50U, the self-cleavage was found to be 0.128.
As for U37A G50C, the self-cleavage stood at 0.0489.
Regarding C36G C84A, the self-cleavage was determined as 0.0773.
For C36G C84G the value was 0.116.
Then C36G C84U, with 0.0755; and U37G G53U, with 0.157.
On to C36U G81A, for which the self-cleavage amounted to 0.24.
Then C36U U69A, with 0.627; and U37A C63G, with 0.17; and U37A C63A, with 0.116.
Turning to C36U G55C, the self-cleavage was 0.789.
For the variant U37G A77C, the self-cleavage came to 0.158.
With U37G A77G, the self-cleavage came to 0.0831.
For U37A G39C, the self-cleavage is 0.
As for C36G G55C, the self-cleavage was determined as 0.0314.
In the case of C36G G55U, the self-cleavage was determined as 0.032.
In the case of C36U C85A, the self-cleavage came to 0.732.
Regarding C36U C85U, the self-cleavage stood at 0.88.
With C36U C85G, the self-cleavage came out at 0.799.
Take U37G C66G: the self-cleavage stood at 0.135.
Consider U37G C66A, for which the self-cleavage was 0.199.
Consider U37G A83U, for which the self-cleavage is 0.156.
Take U37G A83G: the self-cleavage came to 0.138.
Then U37G A83C, with 0.0678; and U37C G38U, with 0.0773; and U37G C61U, with 0.138.
Turning to C36U C86U, the self-cleavage was 0.712.
As for C36U A43U, the self-cleavage turned out to be 0.095.
For C36U A43C, the self-cleavage is 0.
For C36U G76C, the self-cleavage was found to be 0.909.
Then C36U G76U, with 1.05; and U37A G67A, with 0.215; and U37A G67U, with 0.272.
In the case of C36U C64A, the self-cleavage is 0.482.
As for U37C C48G, the self-cleavage worked out at 1.04.
As for U37C C48A, the self-cleavage came out at 1.13.
Consider C36U C49A, for which the self-cleavage came to 0.795.
For U37A A77C, the self-cleavage was 0.0426.
As for U37A A77G, the self-cleavage was found to be 0.415.
Take U37A A77U: the self-cleavage turned out to be 0.104.
Consider C36U A56C, for which the self-cleavage was determined as 0.888.
C36U U72A: the self-cleavage came out at 0.324.
With U37C U60C, the self-cleavage stood at 0.864.
On to U37C U60A, for which the self-cleavage was 1.27.
For C36U G68A, the self-cleavage is 0.626.
As for C36U G68C, the self-cleavage stood at 0.563.
Then C36U A77U, with 0.224; and C36U A77G, with 0.475; and C36U A77C, with 0.145.
Turning to U37A C75A, the self-cleavage was found to be 0.0707.
Take U37A C75G: the self-cleavage worked out at 0.0852.
With U37A C75U, the self-cleavage turned out to be 0.128.
Turning to U37C C84A, the self-cleavage amounted to 0.697.
Turning to U37C C84G, the self-cleavage turned out to be 0.587.
U37C G74C: the self-cleavage worked out at 0.193.
In the case of C36U G54U, the self-cleavage worked out at 0.796.
Take C36U C66U: the self-cleavage turned out to be 0.741.
Regarding C36U C66A, the self-cleavage is 0.712.
Then U37G G52U, with 0.198.
As for C36U G74U, the self-cleavage came to 0.191.
With U37A C62G, the self-cleavage was found to be 0.151.
For U37A A42G the value was 0.0665; for U37G C41A, 0.
On to U37G C41U, for which the self-cleavage was found to be 0.156.
For U37G C41G, the self-cleavage was found to be 0.332.
Then U37G C57U, with 0.0405; and U37A U47A, with 0.201; and C36U C44A, with 0.166.
For the variant C36U C44U, the self-cleavage is 0.197.
For the variant U37A G54C, the self-cleavage was found to be 0.308.
For U37A C85U the value was 0.259; for U37A C85G, 0.0346.
For the variant U37A A56U, the self-cleavage was 0.332.
For U37A A56G, the self-cleavage amounted to 0.107.
On to U37A A56C, for which the self-cleavage worked out at 0.229.
Regarding U37G C84A, the self-cleavage was 0.161.
On to C36U A83C, for which the self-cleavage stood at 0.185.
As to C36U A83G, the self-cleavage was determined as 0.56.
As to C36G U47A, the self-cleavage amounted to 0.177.
On to C36U U37C, for which the self-cleavage is 0.867.
In the case of U37G G40A, the self-cleavage stood at 0.302.
On to U37G G40C, for which the self-cleavage was found to be 0.0519.
For U37A G38U the value was 0.151.
Regarding U37A G38A, the self-cleavage is 0.086.
U37G A51C: the self-cleavage was determined as 0.0504.
Turning to U37G A51U, the self-cleavage was determined as 0.
In the case of U37A G55C, the self-cleavage turned out to be 0.299.
Regarding C36G G50A, the self-cleavage worked out at 0.109.
Turning to C36G G50C, the self-cleavage turned out to be 0.0437.
U37A U65C: the self-cleavage came out at 0.225.
Regarding C36G U79C, the self-cleavage came to 0.154.
Regarding C36G U79A, the self-cleavage was 0.095.
Regarding U37G C44G, the self-cleavage turned out to be 0.0692.
Take U37G C44A: the self-cleavage was determined as 0.0791.
For the variant U37G A87U, the self-cleavage is 0.148.
For the variant U37G A87C, the self-cleavage was 0.0764.
Turning to U37G A87G, the self-cleavage was 0.0455.
In the case of C36U C75G, the self-cleavage was 0.0959.
Then U37C A51U, with 0.923; and U37C A51C, with 0.966; and U37A G74A, with 0.166.
In the case of U37A A87C, the self-cleavage worked out at 0.17.
Then U37A A87U, with 0.325; and U37A A87G, with 0.0989.
In the case of C36U G40U, the self-cleavage amounted to 0.602.
For C36U G40A the value was 0.831.
For the variant U37A G59C, the self-cleavage was found to be 0.224.
As for U37A G59A, the self-cleavage came to 0.237.
With C36U G52A, the self-cleavage is 0.785.
As to C36U G52C, the self-cleavage amounted to 0.779.
As to C36U G53U, the self-cleavage stood at 0.852.
For the variant C36U G38U, the self-cleavage was 0.147.
Consider C36U G38C, for which the self-cleavage came to 0.113.
Turning to U37C C66A, the self-cleavage amounted to 1.25.

The values above are taken from the RNAGym collection of RNA variant scans (doi:10.7554/elife.80360).
